Here are results for 15 sequences from a protein production outcome set (Wang et al. 2014).

This series is described as follows: label from the status in PepcDB records.
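Further: failed if final PepcDB status was selected cloned or expressed and not failed if soluble or beyond.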

Turning to “MPTVAPTTVKPTTIPKETTTIAFTTDSSIEKPFGLDVSQASVGYVNIVWGRGTIDCYNVYVDGERRRTGISAQSLKLPVYTEGTHTIAITTVVGTRESEKLEVQVAITGTGEKETEPETCPEELKPQLKKNVPLRDDRIAIELNNKTNGKYSDSEIYWCILGNNENNQLCYMDKDGNMIPASESLNTVEVNGTKYANIYHTLAESDHVYAPTIRSGRMYLSYGKPVYVKFNGSTGYAGPDLNNPGDVNANTLFEFAEFTIEGKNYWGNTTRVDYFCFPMVTRLIGGSLYGGYDNVVGDIGTRDEIFTAFKNEVPNEYKSLVRDDRIIAPCKSTFNVGQDNGNYFDNYINEFWNKYANEDLRFSSESGSFVGRVVGNQMRFTREGDSTVYYVDKPNTQEVLEGKGAFDRGNGVEKAIEAQLCAAFNRGVATEPDKWYTPSQYYKNSVANFYAGFFHEHSVLGKAYGFCYDDVNDQSTLLQYNKADALVIDLKW”, the protein production entry was “failed”.
In the case of “MPVAEQPYHHGSLRRVLLARAESTLEKDGVDGLSLRQLAREAGVSHAAPSKHFRDRQALLDALAESGFLRLTAALERAVEEAESHARARFAALAGAYVSFALAHRELLALMYGNKHAPGAASQVVEAGHASMDLTVRIVTEAQAAGDIGPGDASRIALVAFATFHGIATLAAGGMLDGAPVDEVVTAASDTFWRGLAQA”, the protein production entry is reported as “not failed”.
Then “MPVAKKYFEIRWHGRAGQGAKSASQMLAEAALEAGKYVQAFPEYGAERTGAPMRAFNRIGDEYIRVRSAVENPDVVVVIDETLLSPAIVEGLSEDGILLVNTVKDFEFVRKKTGFNGKICVVDATDIALQEIKRGIPNTPMLGALVRVTGIVPLEAIEKRIEKMFGKKFPQEVIDANKRALRRGYEEVKCSE”, with “not failed”; and “MPVAVVANPKGGVGKTTLATNLAGYFAARDHAVMLGDTDRQQSSREWLALRPATARPIHTWDISADHIAKPPKGTTHVVLDTPAGLHGWRLADLIRLAGHVIVPLQPSMFDILATQAFLCKLADEKPVRHGEAKVGVVGMRVDMRTRAAEQLQRFVQGLQIPILGYLRDTQNYVQLAAHGLTLWDVAPSRVARDVEQWRGILDWMAPGGITASPDSM”, with “failed”.
To “MPVCILLLRFRDDVHNERFYTLVGIFIVGALCLMILGGTFFYIEYKRAQKQTFVMFFKGSLKGLVTTAPVTYRGVKIGEVKVIEITENKEHSKVLIPVYVQFFVERTYGFSQDPIHLLIDNGYVANITKPNLLTGVAEIELIKPTPAVKYKQTYYHSYPVFPTHNSAEKYTSMEEAFEAAKKAFEDVSELVRSKEIQDTLEAIQKVSENLGQLASSLNQDVPSVVAYLNQSLKQITSAAYSTQNLTDYLSRYPESLLRGKRLEHHHHHH” belongs “failed”; to “MPVGGLLPLFSSPGGGGLGSGLGGGLGGGRKGSGPAAFRLTEKFVLLLVFSAFITLCFGAIFFLPDSSKLLSGVLFHSNPALQPPAEHKPGLGARAEDAAEGRVRHREEGAPGDPGAGLEDNLARIRENHERALREAKETLQKLPEEIQRDILLEKEKVAQDQLRDKDLFRGLPKVDFLPPVGVENREPADATIREKRAKIKEMMTHAWNNYKRYAWGLNELKPISKEGHSSSLFGNIKGATIVDALDTLFIMGMKTEFQEAKSWIKKYLDFNVNAEVSVFEVNIRFVGGLLSAYYLSGEEIFRKKAVELGVKLLPAFHTPSGIPWALLNMKSGIGRNWPWASGGSSILAEFGTLHLEFMHLSHLSGDPVFAEKVMKIRTVLNKLDKPEGLYPNYLNPSSGQWGQHHVSVGGLGDSFYEYLLKAWLMSDKTDLEAKKMYFDAVQAIETHLIRKSSGGLTYIAEWKGGLLEHKMGHLTCFAGGMFALGADGAPEARAQHYLELGAEIARTCHESYNRTYVKLGPEAFRFDGGVEAIATRQNEKYYILRPEVIETYMYMWRLTHDPKYRTWAWEAVEALESHCRVNGGYSGLRDVYIARESYDDVQQSFFLAETLKYLYLIFSDDDLLPLEHWIFNTEAHPFPILREQKKEIDGKEK”, “not failed”.
To “MPVKKLKQFLDSHKIKYLSIAHSPAYTAQEIAASAHVSGKQLAKTVIIKMDGRLAMVVLPASDHITFMKLKEAIGTSDLELATESEFEGKFAECDVGAMPPFGNLYGLPVLVSTKLSAQDNILFNAGSHSELMQLSFGDFEKLVKPTLVTL” belongs “not failed”.
“MPVLLSRLASRTNPSLANRCAMDTWLRSAIDYISSWIEFQQTTIQQPGVIVAFAHRGEVVAEHAFGVANLDTGEKLTPRHRCRIASHSKSFTSAGIMKLREQRKLRLDDSVGQYVGGLHPRVAETTIAQLLSHSAGLTRDGADSGQFIDRRPYLNAEELLAELKLPTAIEPGTRFKYSNHGFGLLGLVIEAVTKEPYTAWIKREIIEPAGLRETEPDAPLPKGAAFARGHTRKVPLGERCVIPGDNPTHAMASATGFAATAADTARFFAQLAPNARKSVLSVASRREMTRHHWRIPQSFEAYYGLGIGAGKLDGWDWLGHGGHFQGYISRTCAIPACELAISIISNSIDGAAPFWMDGAMQILRTFKTRGAPDRRVRDWTGRWWTIWGATDLVPMGDRVLIANPQFNNPFMDAGEIEVTGRDTGRIAAAAGHSSHGEPVRRVRDARGKVSDIWLAGANVKPASVVAREIARQYPPRKRRPTP”: the protein production result is on record as “failed”.
For “MPVTEISEKLSVSPQPSIEDIQSLRDQGFKTLINNRPDNEDASQPNTRAERQQAKQCDLSYAFIPVTADTITEADVRAFQRAVDESDGPVLAHCQTGKRALNLYLIGEVLDGSMSVDKVVEFGRSRGFDTSAAAAWLKQHAARRPQVKGFFDKRTWSVQYVISDPLTRKCAIVDPVLDFDEKSGATATINADAILDYIRDNGLTVEWILDTHPHADHFSAAHYLQEKTGARTAIGERVVDVQKLWKGIYNWPELATDGSQWDRLFAHGETFEVGSIDAKVLFSPGHTLASITYVIGDAAFVHDTLFMPDSGTARADFPGGDARVLWKSIQEILALPAETRIFTGHDYQPEGRAPRWESTVAEQKKSNPHLAGVNEQEFVALRTTRDKTLPMPKLILHALQVNIRGGRLPEPEANGKRYLKFPLDALQGAAWE”, the protein production entry is on record as “failed”.
Regarding “MPYDWKRTETRQELRLWPHNSLPPRGAAGFVLLVFALGLLPLIAVLGSPLLWGLLPFLLLAVAGLWLAIEANYRQRRILEVLTLDPERAHLVRHNPRGAVQEWDCNRYWARATLHAHGGPVPHYVTLQGCGREVEIGAFLSEDERIALYDDLREMLSK”, the protein production result is “failed”.
As for “MPYITIEGGALTREQKSELIRKVTEVASEVMQIPMEFFLCTVKELPDENIGIGGRTIDLIKLEHHHHHH”, the protein production entry is on record as “not failed”.
Then “MQAETNSAPLAAALYMIAAMSIIGVIDNYVIRLAESIGLWQFHFMRSLMMLPLVGLMSLMGLGGLFPRRKGWVLLRSLLLTVAMLFYFSALAFMPIAQALAGLFTSPIFVLLVTAFGLRQRIGPWRILAVLMGFAGILFVLQPDPGAFDATVLIPVAGGFFYALGAVVTRRHCAGESTAALLGAMVTALGLTGLGGLIWLALFPATPLPGPDGFVARGWVWPMAEAMPWVALQAVGSATAVFMLIRAYQLGEPSYVSVFEFSVMIFGPLFAWVVLGVGLGPWQMLGIGLIVLAGAIIALRSG”, with “failed”; and “MQAIRSILVVIEPDQLEGLALKRAQLIAGVTQSHLHLLVCEKRRDHSAALNDLAQELREEGYSVSTNQAWKDSLHQTIIAEQQAEGCGLIIKQHFPDNPLKKAILTPDDWKLLRFAPCPVLMTKTARPWTGGKILAAVDVGNNDGEHRSLHAGIISHAYDIAGLAKATLHVISAHPSPMLSSADPTFQLSETIEARYREACRTFQAEYGFSDEQLHIEEGPADVLIPRTAQKLDAVVTVIGTVARTGLSGALIGNTAEVVLDTLESDVLVLKPDDIIAHLEELASKE”, with “not failed”; and “MQANRSQLHSPPGTGSSEDASTPQCVHTRLTGEGSCPHSGDVHIQINSIPKECAENASSRNIRSGVHSCAHGCVHSRLRGHSHSEARLTDDTAAESGDHGSSSFSEFRYLFKWLQKSLPYILILSVKLVMQHITGISLGIGLLTTFMYANKSIVNQVFLRLNFFKSYFGPFELLGSILDCWNYRLHSEILFHGLKMPYFIGAFFHHAF”, with “failed”.
To “MQARDIMTTTVVSISPDVSVRHAVAMMLQNHVSGLPVVDDHGRVCGMVTEGDLLLRREVRYAPRPARAPELISEIDLERYIGSNGWCVADVMSQDVIVARPDSEVSDIAESLQVHRIKRLPIVEDERLVGIVSRRDILRVIAEAPTTILPRGDEAIRLAVRTRLRSDLGLTPQKVHVSVRNGQVTVDGQVESELKRRAIKVLVEGLGGIAGYKDGLLVSPAHIQD” belongs “failed”.
